Laboratory results taken from patent publication US20060045883A1, “Anti-cancer vaccines” (priority 2004, published 2006).

Experiments:
[1] = target: HLA-A2.1 heavy chain with I125-labeled beta2-microglobulin (heterotrimer dissociation assay) (human); assay: dissociation of I125-labeled beta2-microglobulin from the heavy chain/peptide/beta2-microglobulin complex, HPLC gel filtration
[2] = target: HLA-A2.1 (HLA-A*0201) on the surface of T2 cells (human); assay: peptide-binding assay, stabilisation of HLA-A2 on the surface of T2 cells, fluorescence intensity relative to PR1

FI CCNE1144-152/FI PR1 [2] | Substance | T1/2 [1] [h]
– | HTLV-1 Tax peptide (aa 11-19) (from UniProt P03409 11-19) (peptide; other documents disagree on this pair) | 133
1.01 | CCNE1144-152 (cyclin E1 derived nonameric peptide) (from UniProt P24864 144-152) | –
